Our source for the IC50 of inhibition of CXCL8-induced chemotaxis of neutrophils in vitro and Kd values is publication PMC2526197.

Test [1] addresses CXCL8 (human).
The target of test [2] is Evasin-3 (HEK) (Rhipicephalus sanguineus) (UniProt P0C8E8). In words: SPR. Background: Surface plasmon resonance follows binding to a sensor surface in real time, without labels.
Chain of Evasin-3 (HEK) (Rhipicephalus sanguineus) (P0C8E8 21-86): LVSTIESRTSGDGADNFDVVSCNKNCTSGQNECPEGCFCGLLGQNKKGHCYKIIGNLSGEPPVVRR

Chain of Evasin-3 (E. coli) (P0C8E8 21-86): as above

On to “Evasin-3 (E. coli) (from UniProt P0C8E8 21-86) (natural protein)”, for which, in test [1], the IC50 of inhibition of CXCL8-induced chemotaxis of neutrophils in vitro is 3.35 nM.

By Kd is commonly meant the equilibrium constant for the complex coming apart. In turn, CXCL8 (ligand) displayed a Kd in test [2] of 0.7 nM.
